Reference: IntAct's records for PubMed 29039417

B1: Isoform 2 of Bardet-Biedl syndrome 7 protein (Homo sapiens), Q8IWZ6-2 (parent)
chain: MDLILNRMDYLQVGVTSQKTMKLIPASRHRATQKVVIGDHDGVVMCFGMKKGEAAAVFKTLPGPKIARLELGGVINTPQEKIFIAAASEIRGFTKRGKQFLSFETNLTESIKAMHISGSDLFLSASYIYNHYCDCKDQHYYLSGDKINDVICLPVERLSRITPVLACQDRVLRVLQGSDVMYAVEVPGPPTVLALHNGNGGDSGEDLLFGTSDGKLALIQITTSKPVRKWEIQNEKKRGGILCIDSFDIVGDGVKDLLVGRDDGMVEVYSFDNANEPVLRFDQMLSESVTSIQGGCVGKDSYDEIVVSTYSGWVTGLTTEPIHKESGPGEELKINQEMQNKISSLRNELEHLQYKVLQERENYQQSSQSSKAKSAVPSFGINDKFTLNKDDASYSLILEVQTAIDNVLIQSDVPIDLLDVDKNSAVVSFSSCDSESNDNFLLATYRCQADTTRLELKIRSIEGQYGTLQAYVTPRIQPKTCQVRQYHIKPLSLHQRTHFIDHDRPMNTLTLTGQFSFAEVHSWVVFCLPEVPEKPPAGECVTFYFQNTFLDTQLESTYRKGEGVFKSDNISTISILKDVLSKEATKRKINLNISYEINEVSVKHTLKLIHPKLEYQLLLAKKVQLIDALKELQIHEGNTNFLIPEYHCILEEADHLQEEYKKQPAHLERLYG
partner: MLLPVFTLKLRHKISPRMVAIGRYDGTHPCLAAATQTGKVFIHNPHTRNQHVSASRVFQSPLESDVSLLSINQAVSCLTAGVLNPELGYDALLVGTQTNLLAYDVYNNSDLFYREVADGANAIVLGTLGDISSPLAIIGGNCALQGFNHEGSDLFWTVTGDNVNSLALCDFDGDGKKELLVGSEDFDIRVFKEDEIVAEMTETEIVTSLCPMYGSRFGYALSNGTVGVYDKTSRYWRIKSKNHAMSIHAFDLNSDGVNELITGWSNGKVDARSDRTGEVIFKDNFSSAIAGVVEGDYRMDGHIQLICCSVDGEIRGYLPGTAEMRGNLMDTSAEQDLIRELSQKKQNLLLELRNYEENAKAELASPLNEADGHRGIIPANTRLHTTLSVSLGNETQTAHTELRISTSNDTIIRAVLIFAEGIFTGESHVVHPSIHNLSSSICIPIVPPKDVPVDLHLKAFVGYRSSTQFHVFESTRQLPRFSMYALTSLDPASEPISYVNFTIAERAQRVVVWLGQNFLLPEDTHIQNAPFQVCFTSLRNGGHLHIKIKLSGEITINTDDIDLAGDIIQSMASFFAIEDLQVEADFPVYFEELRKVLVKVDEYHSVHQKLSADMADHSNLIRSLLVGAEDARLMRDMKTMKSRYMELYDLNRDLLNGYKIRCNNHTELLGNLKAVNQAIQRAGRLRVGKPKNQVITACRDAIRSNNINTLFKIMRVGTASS
B2: Protein PTHB1 (Homo sapiens), Q3SYG4 (parent)
chain: MSLFKARDWWSTILGDKEEFDQGCLCLANVDNSGNGQDKIIVGSFMGYLRIFSPHPAKTGDGAQAEDLLLEVDLRDPVLQVEVGKFVSGTEMLHLAVLHSRKLCVYSVSGTLGNVEHGNQCQMKLMYEHNLQRTACNMTYGSFGGVKGRDLICIQSMDGMLMVFEQESYAFGRFLPGFLLPGPLAYSSRTDSFLTVSSCQQVESYKYQVLAFATDADKRQETEQQKLGSGKRLVVDWTLNIGEQALDICIVSFNQSASSVFVLGERNFFCLKDNGQIRFMKKLDWSPSCFLPYCSVSEGTINTLIGNHNNMLHIYQDVTLKWATQLPHIPVAVRVGCLHDLKGVIVTLSDDGHLQCSYLGTDPSLFQAPNVQSRELNYDELDVEMKELQKIIKDVNKSQGVWPMTEREDDLNVSVVVSPNFDSVSQATDVEVGTDLVPSVTVKVTLQNRVILQKAKLSVYVQPPLELTCDQFTFEFMTPDLTRTVSFSVYLKRSYTPSELEGNAVVSYSRPTDRNPDGIPRVIQCKFRLPLKLICLPGQPSKTASHKITIDTNKSPVSLLSLFPGFASQSDDDQVNVMGFHFLGGARITVLASKTSQRYRIQSEQFEDLWLITNELILRLQEYFEKQGVKDFACSFSGSIPLQEYFELIDHHFELRINGEKLEELLSERAVQFRAIQRRLLARFKDKTPAPLQHLDTLLDGTYKQVIALADAVEENQGNLFQSFTRLKSATHLVILLIALWQKLSADQVAILEAAFLPLQEDTQELGWEETVDAAISHLLKTCLSKSSKEQALNLNSQLNIPKDTSQLKKHITLLCDRLSKGGRLCLSTDAAAPQTMVMPGGCTTIPESDLEERSVEQDSTELFTNHRHLTAETPRPEVSPLQGVSE
partner: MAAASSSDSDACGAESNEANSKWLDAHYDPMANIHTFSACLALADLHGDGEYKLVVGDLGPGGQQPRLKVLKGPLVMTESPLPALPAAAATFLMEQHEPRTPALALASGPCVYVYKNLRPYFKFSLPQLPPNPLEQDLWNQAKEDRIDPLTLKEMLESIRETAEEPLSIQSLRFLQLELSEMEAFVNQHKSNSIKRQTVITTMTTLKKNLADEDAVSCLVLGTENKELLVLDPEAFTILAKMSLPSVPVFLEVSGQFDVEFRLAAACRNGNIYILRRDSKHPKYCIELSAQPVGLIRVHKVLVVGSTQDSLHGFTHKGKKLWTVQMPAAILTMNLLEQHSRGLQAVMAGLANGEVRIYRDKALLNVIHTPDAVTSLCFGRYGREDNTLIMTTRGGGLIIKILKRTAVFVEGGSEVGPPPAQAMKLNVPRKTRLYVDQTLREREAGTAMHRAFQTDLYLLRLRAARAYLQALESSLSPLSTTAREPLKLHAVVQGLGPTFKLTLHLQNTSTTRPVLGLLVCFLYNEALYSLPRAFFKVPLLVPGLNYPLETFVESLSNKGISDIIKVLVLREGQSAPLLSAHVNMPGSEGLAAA

Variants of: B1
Details: with bbs2_human BBS2, Q9BXC9

| effect of a mutation on the interaction | Variant |
| --- | --- |
| with no effect | I404K |
| with no effect | E596K |
| with no effect | E631K |
| with no effect | E435K |
| with no effect | E462A |
| with no effect | N406E |
| with no effect | K355E |
| with no effect | K577A |
| with no effect | L511A |
| with no effect | A392K |
| disrupting interaction strength | I476A |
| with no effect | I342A |
| with no effect | P377A |
| with no effect | T508A |
| with no effect | D419A |
| with no effect | L454A |
| with no effect | S395E |
| with no effect | G466K |
| with no effect | G466A |
| with no effect | L396K |
| with no effect | K489A |
| with no effect | K389E |
| with no effect | E651A |
| with no effect | V602E |
| with no effect | E645A |
| with no effect | P505E |
| with no effect | E337K |
| with no effect | V541A |
| with no effect | K582E |

Variants of: B1
Details: with bbs2_human BBS2, Q9BXC9
Remark: another data set of the same source

| effect of a mutation on the interaction | Variant |
| --- | --- |
| with no effect | S556R |

Variants of: B2
Details: with bbs1_human BBS1, Q8NFJ9

| effect of a mutation on the interaction | Variant |
| --- | --- |
| with no effect | T405A |
| with no effect | Y623E |
| with no effect | L695K |
| with no effect | P564E |
| with no effect | V417A |
| with no effect | I617E |
| with no effect | D631E |
| with no effect | D608A |
| with no effect | T731K |
| with no effect | P877E |
| with no effect | K687A |
| with no effect | D804E |
| with no effect | T763E |
| with no effect | G718K |
| with no effect | A755E |
| with no effect | L720K |
| with no effect | Q677A |
| with no effect | K803E |
| with no effect | R510A |
| with no effect | D435K |
| with no effect | L666A |

| effect of a mutation on the interaction | Variant |
| --- | --- |
| with no effect | T688A |
| with no effect | V713E |
| with no effect | F580K |
| with no effect | I846E |
| with no effect | I846K |
| with no effect | F636K |
| with no effect | Q471K |
| with no effect | S423A |
| with no effect | Y645A |
| with no effect | K594A |
| with no effect | L681K |
| disrupting interaction strength | I735K |
| with no effect | I735E |
| with no effect | D470K |
| with no effect | P758E |
| with no effect | P463E |
| with no effect | L481K |
| with no effect | Q672A |
| with no effect | Q748A |
| with no effect | A708K |
| with no effect | E660A |

| effect of a mutation on the interaction | Variant |
| --- | --- |
| with no effect | H652A |
| with no effect | Q807E |
| with no effect | L611A |
| with no effect | S425K |
| with no effect | V440E |
| with no effect | R493A |
| with no effect | R493E |
| with no effect | D859E |
| with no effect | S509A |
| with no effect | D572K |
| with no effect | Y460E |
| with no effect | Q602K |
| with no effect | Q602A |
| with no effect | Q764K |
| with no effect | A754K |
| disrupting interaction strength | A670V |
| with no effect | I676E |
| with no effect | G767A |
| with no effect | T589A |
| with no effect | N866E |
| with no effect | P530K |
